Paper PMC6167709

Experiments:
[1] = SEC; ConSOSL.UFO.664 from concentrated 293T.17 supernatant, in PBS, Enrich SEC 650 column; oligomeric state of the gp140
[2] = biological target: ConSOSL.UFO.664 gp140 (HIV-1 (group M consensus, ConS)); assay: as above

## ConSOSL.UFO.664 gp140
[1]
  share of the trimer peak in the SEC profile: trimer peak ∼54%
[2]
  stoichiometry N: 3
